Key:
[1] = target: T1, biotinylated CD3 recombinant antigen (CD3εγ) (Homo sapiens (Human), UniProt P07766 23-126; P09693 23-116, Biotinylated; site and chemistry not stated. The letters do not carry the biotin.); test: BLI, biotinylated antigen on SA probe, antibody as analyte
T1 construct: also called CD3e antigen; copies: 1 + 1

[2] = target: T2, biotinylated BCMA recombinant antigen (Homo sapiens (Human), UniProt Q02223 1-54, Biotinylated; site and chemistry not stated. The letters do not carry the biotin.); test: as above
T2 sequence: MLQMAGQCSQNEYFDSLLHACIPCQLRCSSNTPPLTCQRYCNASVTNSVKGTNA

[3] = target: T3, human BCMA on HEK293-hBCMA cells (human, UniProt Q02223 1-184); test: flow cytometry, HEK293-hBCMA cells
T3 construct: whole, on cells; also called BCMA receptor
T3 sequence (looked up): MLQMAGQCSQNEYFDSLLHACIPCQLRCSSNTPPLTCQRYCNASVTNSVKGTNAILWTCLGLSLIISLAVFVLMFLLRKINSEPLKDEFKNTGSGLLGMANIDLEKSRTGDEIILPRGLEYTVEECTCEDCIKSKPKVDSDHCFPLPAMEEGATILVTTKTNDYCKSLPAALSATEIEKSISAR

[4] = target: T3, human BCMA on HEK293-hBCMA cells; test: cell-based or functional assay

T1 sequence (P07766 23-126 limits assumed, chain 1 of 2): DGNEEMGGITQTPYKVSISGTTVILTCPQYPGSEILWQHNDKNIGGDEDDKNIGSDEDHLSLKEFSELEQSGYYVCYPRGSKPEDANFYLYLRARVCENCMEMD
T1 sequence (P09693 23-116 limits assumed, chain 2 of 2): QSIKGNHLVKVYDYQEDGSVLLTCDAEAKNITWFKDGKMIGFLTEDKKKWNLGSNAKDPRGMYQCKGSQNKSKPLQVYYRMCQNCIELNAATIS

B1: BCMA × CD3 κλ005 bispecific antibody (bispecific antibody, human IgG4 S228P, kappa, lambda)
heavy 1: QVQLVQSGSELKKPGASVKVSCKASGYIFTNFGMNWVREAPGQGLEWMGWINTYTGEQIYADGFTGRFVFSLDTSVSTAYLQISSLKAEDTAVYFCARGEIYYGYDVGFVYWGQGTLVTVSS
light 1: DIVLTQSPASLAVSPGQRATITCRASKSVSTSGYSYMHWYQKKPGQPPKLLIYLASNLESGVPARFSGSGSGTDFTLTINPVEAEDTANYYCQHSRELPWTFGQGTKVEIKRTVAAPSVFIFPPSDEQLKSGTASVVCLLNNFYPREAKVQWKVDNALQSGNSQESVTEQDSKDSTYSLSSTLTLSKADYEKHKVYACEVTHQGLSSPVTKSFNRGEC
heavy 2: EVQLVESGGGLVQPGGSLRLSCAASGFTFNTYAMNWVRKAPGKGLEWVGRIRSKYNNYATYYADSVKDRFTISRDDSKNSLYLQMNSLKTEDTAVYYCVRHGNFGNSYVSWFAYWGQGTLVTVSSASTKGPSVFPLAPCSRSTSESTAALGCLVKDYFPEPVTVSWNSGALTSGVHTFPAVLQSSGLYSLSSVVTVPSSSLGTKTYTCNVDHKPSNTKVDKRVESKYGPPCPPCPAPEFEGGPSVFLFPPKPKDTLMISRTPEVTCVVVDVSQEDPEVQFNWYVDGVEVHNAKTKPREEQFNSTYRVVSVLTVLHQDWLNGKEYKCKVSNKGLASSIEKTISKAKGQPREPQVYTLPPCQEEMTKNQVSLWCLVKGFYPSDIAVEWESNGQPENNYKTTPPVLDSDGSFFLYSKLTVDKSRWQEGNVFSCSVMHEALHNHYTQKSLSLSLGK
light 2: QAVVTQEPSLTVSPGGTVTLTCRSSTGAVTTSNYANWVQEKPGQAPRGLIGGTNKRAPWTPARFSGSLLGGKAALTITGAQAEDEAEYYCVLWYSNLWVFGGGTKLTVLGQPKAAPSVTLFPPSSEELQANKATLVCLISDFYPGAVTVAWKADSSPVKAGVETTTPSKQSNNKYAASSYLSLTPEQWKSHRSYSCQVTHEGSTVEKTVAPTECS
notes: they are not tied to the name κλ005 in one sentence; also called BCMA×CD3 bispecific antibody
For B1, which Kd [1] is on record?
Its Kd is 45.4 nM.

And the Kd [2]?
The Kd was 1.1 nM.

And the EC50 [3]?
The EC50 was 1.9 nM.

What about the “TDCC EC50 (nM), HEK293-hBCMA” value [4] of the same binder?
The value was 0.015 nM.

— patent US20260116966A1 (KEYMED BIOSCIENCES CHENGDU, published 2026)
